In patent US20240409618A1 one finds fold change of neutralization against B.1.351 pseudovirus relative to WA1/2020 data, which are given here for one substance.

The target in the experiment is SARS-CoV-2 B.1.351 (Beta) spike on pseudotyped virus (SARS-CoV-2 B.1.351) (UniProt P0DTC2). Kind of experiment: cell-based or functional assay.

DMAb REGN10987 (FcWT) (antibody) showed a fold change of neutralization against B.1.351 pseudovirus relative to WA1/2020 below 3 fold.
